Article PMC9302814
pKd: −log10 of the molar value.

Molecular target: SARS-CoV-2 Spike
Assay: SPR

| Substance | pKd | koff [s⁻¹] |
| --- | --- | --- |
| CC40.8 | 8.80 | 0.00038 |
| CV3-25 | 8.60 | 0.00061 |
| S2P6 | 8.01 | 0.0033 |
